Molecular target: T1, SARS-CoV-2 Omicron BA.1突变株 S蛋白 (Sino Biological，货号:40589-V08B33) (SARS-CoV-2 Omicron BA.1突变株)
T1 construct: also called Omicron BA.1 S蛋白
Test: ELISA, S protein coated, antibody titrated from 10 μg/mL

B1: 抗新型冠状病毒SARS-CoV-2的广谱抗体(VSM12-37) (antibody, V domains shown)
VH: EVQLVESGGGLVQPGGSLRLSCAVSGFTVSSNYMSWVRQAPGKGLEWVSLIYSGGSTYYADSVKGRFTVSRDRSKNTLYLQMNSLRAEDTALYYCARDNPRVGSNYWGQGTLVTVSS
VL: DIQMTQSPSSLSASVGDRVTITCQASQDINNYLNWYQQKPGKAPKLLIYDASNLEAGVPSRFSGSGSGTDFTFTISSLQPEDIATYYCQQCDNVPLTFGGGTKVEIKR
notes: also called VSM12-37抗体
EC50: > 5 µg/mL
